# Measured values as given in patent publication US6015560.
# Read-outs that look alike come from different tables or passages of the source.
# How the values were obtained:
# [1] = molecular target: integrin complement receptor 3 (CR3) on human leukocytes (human) (UniProt P11215)
# [2] = molecular target: integrin complement receptor 3 (CR3) on human leukocytes (human) (UniProt P11215); remark: listed apart in the source
# [3] = molecular target: integrin complement receptor 3 (CR3) on human leukocytes (human) (UniProt P11215); remark: listed apart in the source
# [4] = molecular target: integrin complement receptor 3 (CR3) on human leukocytes (human) (UniProt P11215); experiment: competition: 125I-Factor X binding to fMLP-stimulated human neutrophils
# [5] = molecular target: integrin complement receptor 3 (CR3) on human leukocytes (human) (UniProt P11215); remark: listed apart in the source
# [6] = molecular target: integrin complement receptor 3 (CR3) on human leukocytes (human) (UniProt P11215); remark: listed apart in the source
# [7] = molecular target: integrin complement receptor 3 (CR3) on human leukocytes (human) (UniProt P11215); experiment: macrophages spread on antibody-coated wells; residual CD11b/CD18 detected with C3bi-coated erythrocytes
Substance,% Inhibition of TEM (transendothelial migration of neutrophils) [1] [%],% inhibition of 125I-Factor X binding [2] [%],concentration at which inhibition of neutrophil adherence was lost [3] [µM],IC50 [4] [nM],inhibition of neutrophil adherence to TNF-stimulated HUVEC [5] [%],inhibition of transendothelial migration of neutrophils [6] [%],% inhibition of 125I-Factor X binding [4] [%],% reduction of the binding of C3bi-coated erythrocytes to macrophages [7] [%]
"Filamentous hemagglutinin (FHA) of Bordetella pertussis, native purified protein (from UniProt P12255) (ligand)",82,70,0.001,100,,,,
mAb IB4 against CD18 (antibody),,,,,38,73,53,67
mAb W6/32 against HLA class I antigen (antibody),,,,,,6,,
